# From patent US20160108091A1
# Target: human APJ receptor (hAPJ) (human) (UniProt P35414)
# Experiment: cell-based or functional assay
# Sequence of human APJ receptor (hAPJ) (human) (P35414 whole entry): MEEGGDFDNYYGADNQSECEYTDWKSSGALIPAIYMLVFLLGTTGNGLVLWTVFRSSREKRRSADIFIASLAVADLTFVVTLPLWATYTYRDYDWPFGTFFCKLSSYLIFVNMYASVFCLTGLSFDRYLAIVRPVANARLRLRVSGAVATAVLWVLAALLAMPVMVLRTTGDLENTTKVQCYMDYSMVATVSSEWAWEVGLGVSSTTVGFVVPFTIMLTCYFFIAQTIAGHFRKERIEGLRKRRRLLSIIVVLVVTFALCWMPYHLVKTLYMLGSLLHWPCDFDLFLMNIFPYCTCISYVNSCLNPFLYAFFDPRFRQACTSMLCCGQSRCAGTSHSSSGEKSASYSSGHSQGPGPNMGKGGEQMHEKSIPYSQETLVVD
substance,measurement,value
Conjugate of AH-Fc with apelin cyclic peptide: AH-Fc-BCN clicked to NH2-AzidoLys-GGGGS-Q-R-P-C-L-S-C-K-G-P-Dnle-Phenethylamine (from UniProt P0DOX5 223-449) (Fc fusion),hAPJ Ca^2+ Flux EC50,16.3 nM
Fc-Apelin conjugate using sortase: Fc-GGGGS-LPET-GGGGG-QRPC*LSC*KGP(D-Nle)Phenethylamine (Fc fusion),hAPJ Ca^2+ Flux EC50,28.9 nM
